The values that follow are results of earlier work, collected in PMC11084152, “Galf-Specific Neolectins: Towards Promising Diagnostic Tools” (International Journal of Molecular Sciences, 2024).

Details of the data set: method as in PMID 26148048. The conditions noted are these: β-D-Galf-substituted surface; read-out: functional affinity value.

B1: hIntL-1: human intelectin-1, galactofuranosyl-binding lectin used as positive control (protein, UniProt Q8WWA0 19-298, looked up)
Intelectin-1: TDEANTYFKEWTCSSSPSLPRSCKEIKDECPSAFDGLYFLRTENGVIYQTFCDMTSGGGGWTLVASVHENDMRGKCTVGDRWSSQQGSKAVYPEGDGNWANYNTFGSAEAATSDDYKNPGYYDIQAKDLGIWHVPNKSPMQHWRNSSLLRYRTDTGFLQTLGHNLFGIYQKYPVKYGEGKCWTDNGPVIPVVYDFGDAQKTASYYSPYGQREFTAGFVQFRVFNNERAANALCAGMRVTGCNTEHHCIGGGGYFPEASPQQCGDFSGFDWSGYGTHVGYS
Take B1: the Kd is 85 ± 14 nM.
